{
  "source": "patent US20240199696A1",
  "about": "“AGENTS FOR MANUFACTURE OF CO-ASSEMBLING PEPTIDES” (University of Florida Research Foundation, Incorporated, priority 2021, published 2024)",
  "molecules": {"B1": {"name": "mCATCH(+) peptide, Ac-QQKPKPKPKQQ-Am (peptide)", "peptide": "Ac-QQKPKPKPKQQ-NH2", "notes": "Mutant of CATCH(+) with proline in place of the phenylalanine residues; also called mutant CATCH(4+); mCATCH (4+)"}},
  "key": {"[1]": {"biological_target": "CATCH(+) peptide, Ac-…-Am", "test": "fluorescence microscopy of binary mixtures (FIG. 33A: 0.75 µM CATCH(+))"}, "[2]": {"biological_target": "the molecule itself", "test": "ThT fluorimetry, TEM, circular dichroism and fluorescence microscopy of the peptide alone"}, "[3]": {"biological_target": "T1, mCATCH(-) peptide, Ac-EQEPEPEPEQE-Am", "T1 construct": "Mutant of CATCH(-) with proline in place of the phenylalanine residues", "T1 peptide": "Ac-EQEPEPEPEQE-NH2", "test": "ThT fluorimetry, equimolar mixture in 1xPBS", "protocol": "(§1) Thioflavin T (ThT) Assay. A ThT stock solution containing 0.8 mg/mL of thioflavin T (Acros) in 1× phosphate-buffered saline (PBS) (137 mM NaCl, 2.7 mM KCl, 10 mM Na₂HPO₄ and 1.8 mM KH₂PO₄, pH 7.4) was filtered through a 0.22 μm syringe filter (Millex), and further diluted 1:10 with 1×PBS to create a working solution. Peptide samples were mixed with the ThT working solution at a 1:10 (v/v) ratio, added to a black 96-well plate (Corning), and analyzed with a Molecular Devices SpectraMax M3 spectrophotometer (excitation 450, emission 482 nm). All samples were run in triplicate, with the mean and standard deviation of these samples reported."}, "[4]": {"biological_target": "B1", "test": "ThT fluorimetry, equimolar mixture in 1xPBS", "protocol": "as §1"}, "[5]": {"biological_target": "T1, mCATCH(-) peptide, Ac-EQEPEPEPEQE-Am", "test": "ThT fluorimetry, kinetic analysis"}},
  "data": [
    {"molecule": "CATCH(-)GFP, recombinant fusion of CATCH(-) and superfolder green fluorescent protein", "values": [
      {"measurement": "concentration below which only diffuse fluorescence (no microparticles) was observed", "setting": "[1]", "result": "< 7.5", "unit": "µM"}
    ]},
    {"molecule": "Ac-QQKFKFKFKQQ-NH2 (Synthetic cationic variant of Q11; also called CATCH (4+); CATCH(4+))", "note": "[CATCH(+) peptide, Ac-QQKFKFKFKQQ-Am]", "values": [
      {"measurement": "binding result", "setting": "[2]", "result": "no binding"},
      {"measurement": "binding result", "setting": "[3]", "result": "no binding"}
    ]},
    {"molecule": "Ac-EQEFEFEFEQE-NH2 (Synthetic anionic variant of Q11; also called CATCH (6-); CATCH(6-))", "note": "[CATCH(-) peptide, Ac-EQEFEFEFEQE-Am]", "values": [
      {"measurement": "binding result", "setting": "[2]", "result": "no binding"},
      {"measurement": "binding result", "setting": "[4]", "result": "no binding"}
    ]},
    {"molecule": "B1", "values": [
      {"measurement": "binding result", "setting": "[5]", "result": "no binding"}
    ]}
  ]
}
